Test results taken from patent publication US10159707B2, “Treatment of cancers with immunostimulatory HIV Tat derivative polypeptides” (PIN Pharma, Inc., priority 2013, dated 2018).
“Also recorded” adds a separate entry of the source.

Tests used:
Format in all cases: in vivo, mouse
[1] = tested on: tumor infiltrating CD8+ CTL; assay: IHC staining of primary 4T1 breast tumors for CD8; conditions: therapy initiated 7 days after inoculation; resected Day 29/30; listed as PIN-2
Method: (§1) Female BALB/c mice were inoculated in the mammary fat pad with syngeneic and highly metastatic 4T1 breast cancer cells to model Stage IV human breast cancer. Nani-P2 immunotherapy was initiated 7 days after tumor cell inoculation. Tumors were assessed by caliper measurements throughout the study and resected on Day 29/30. Immunohistochemical staining (IHC) for PD-L1 and CD8 was performed on formalin-fixed, paraffin embedded specimens of primary 4T1 tumors.

4T1 breast tumors = assay: Kaplan-Meier survival of mice bearing 4T1 breast tumors
Method: To determine whether Nani-P2 treatment could extend survival in addition to shrinking primary tumors in mice, treatment protocols using various dosing schedules and routes (SC, IV or IT) of administration of 40 ng Nani-P2 were performed. Cohorts of ten mice per group were followed for length of survival, as assessed by use of the Kaplan-Meier product limit method. As per Columbia University Medical Center Animal Facility regulations, each mouse was euthanized at a mean tumor diameter of approximately 15 mm, or earlier if the mouse became moribund, making one of these two outcomes the defining criteria for fatality.

4T1 breast tumor = assay: 4T1 primary breast tumor growth in BALB/c mice
Method: (§2) BALB/c mice were injected (SC) with 1×10^4 4 T1, 1×10^5 TS/A or 2×10^5 SM1 cells, respectively, in the left mammary pad on day 0. […] The control group received PBS injection. […] Tumor burden (tumor volume) was measured and recorded three times weekly. Animals were sacrificed when tumors reached a volume of 15 mm in diameter and the tumors harvested and weighed.
The therapeutic effect of systemic administration of synthetic, Tat-derived compositions in murine models of breast cancer was investigated. […]

4T1 lung metastases = assay: Detection of 4T1 lung metastases
Description: Lungs were examined for 4T1 metastases as previously described (Pulaski B. et al. Cancer Res. 60:2710-2715, 2000). Primary 4T1 tumors that have been established for 2-3 weeks in BALB/c mice metastasize to the lungs in a very large majority of animals. Briefly, mice were sacrificed according to IACUC guidelines established at the start of the trials, the lungs were removed, and tumor nodules on the surface of the lungs were enumerated with the naked eye by two independent investigators blinded to the treatment protocols.
To further investigate the efficacy of Nani-P2 against established and metastatic breast cancer, 4T1 cells were injected SC in the abdominal mammary gland of mice and treatment was delayed until such time that the tumors had metastasized to the lungs and averaged 3.5 mm in size (FIG. 8A, day 13), corresponding to a 2.4 cm or stage T2 human breast tumor. Mice were followed for tumor growth (FIG. 8A) and lung metastases (FIG. 8B). […] This corresponded to a less aggressive appearance of primary tumor, as well as lung metastases that were on average much smaller in size (FIG. 8B).

TS/A breast cancer cells = assay: TS/A breast carcinoma model, primary tumor growth
Method: BALB/c mice were injected (SC) with 1×10^4 4 T1, 1×10^5 TS/A or 2×10^5 SM1 cells, respectively, in the left mammary pad on day 0. Immunotherapy was performed by directly injecting a Tat derivative into the right flank at 0, 7, 12, and 17 days after establishment of tumors. The control group received PBS injection. […] Tumor burden (tumor volume) was measured and recorded three times weekly. Animals were sacrificed when tumors reached a volume of 15 mm in diameter and the tumors harvested and weighed.
The 4T1 murine mammary tumor model was chosen for study because it is an aggressive and rapidly invasive tumor; it is routinely metastatic at fourteen days post-implant by which time it is difficult to treat. To learn whether the efficacy of Nani-P2 could extend to other murine breast tumor models, two additional mammary tumors, TS/A and SM1 were studied (FIG. 6). TS/A primary mammary tumors were approximately as aggressive as 4T1, reaching a tumor volume of 15 mm at 30 days (FIG. 6A). However, the TS/A tumors were considerably more responsive to Nani-P2 treatment, with an approximate 50% suppression of growth after treatment with 0.4 ng Nani-P2, and a 40% total remission rate at 30 days.

SM1 breast cancer cells = assay: SM1 mammary carcinoma model, primary tumor growth
Method: as §2
The SM1 mammary carcinoma model (FIG. 6B) is initially less aggressive as a primary tumor, and deaths appear to be through mechanisms other than metastatic disease. By day 30 of treatment, SM1 tumors reached a mean volume approximately 33% smaller than either TS/A or 4T1. This indicated a heightened sensitivity of the SM1 tumor to Nani-P2 immunotherapy as compared to 4T1, such that tumor growth was suppressed in 100% of animals for 16 days, and 40% of animals remained in remission even at 28 days following implant and fully one week after termination of the regimen.

PD-L1 = assay: IHC staining of primary 4T1 breast tumors for PD-L1; conditions: therapy initiated 7 days after inoculation, resected Day 29/30
Method: as §1

B1: Nani-P2: Tat derivative polypeptide SEQ ID NO:3; TF SIVagmVer, cysteine-rich HIV-1, C-terminal SIVagmVer (protein)
chain: MDPKGEEDQDVSHQDLIKQYRKPRTACNNCYCKKCCFHCYACFLRKGLGITYHAFRTRRKKIASADRIPVPQQSISIRGRDSQTTQESQKKVEEQAKANLRISRKNLGDETRGPVGAGN
modifications: Tat derivative polypeptide
notes: TF SIVagmVer, cysteine-rich HIV-1, C-terminal SIVagmVer
tumor infiltrating CD8+ CTL versus PBS control [1]: infiltrating CD8+ CTL advancing around tumor edge; also recorded: significant increase in the population of tumor infiltrating CD8+ CTL
survival, intratumoral administration (4T1 breast tumors; 40 ng IT, three weekly cycles, tumors established fourteen days): slightly inferior to SC administration
survival at day 47 (4T1 breast tumors; 40 ng IV, three weekly cycles, tumors established fourteen days, p<0.005): 60%
treated mice still alive at day 48 (4T1 breast tumors; 40 ng SC, 4 doses over 21 days from tumor implant, p<0.001): 35%
survival at day 47 (4T1 breast tumors; 40 ng SC, three weekly cycles, tumors established fourteen days, p<0.05): 20%
survival versus control mice (4T1 breast tumors; 4T1 model): increased survival compared with control mice
tumor growth inhibition and survival benefits, extension past the last dosing (4T1 breast tumors; established 4T1 tumors, treated intravenously): at least 36 days
survival versus controls at day 42 (4T1 breast tumors; four doses 40 ng SC from day 0): statistically significant better survival over controls
survival benefit versus control, IV (4T1 breast tumors; three weekly doses 40 ng IV, therapy delayed until day 13/14, day 47): very highly statistically significant benefit to survival; also recorded: highly statistically significant
survival benefit versus control, SC (4T1 breast tumors; three weekly doses 40 ng SC into draining lymph nodes, therapy delayed until day 13, day 47): statistically significant
4T1 tumor volume difference versus control, 4 ng (4T1 breast tumor; 4 ng per mouse, four times over 21 days, p<0.1 as printed): highly significant
mice in complete remission, disease-free at 50 days (4T1 breast tumor; 40 ng IV weekly over three weeks from day 14): one animal underwent a complete remission; also recorded: One of 10
mice with regression of tumor at the initial treatment on day 14 (4T1 breast tumor; 40 ng IV, established 4T1 tumors): 7/10
4T1 tumor volume difference versus control, 40 ng (4T1 breast tumor; 40 ng per mouse, four times over 21 days, p<0.01): highly significant
primary tumor burden of established 4T1 tumors versus PBS control (4T1 breast tumor; 40 ng weekly for three weeks beginning at day 14 (IV), p<0.01): statistically significant benefit in primary tumor suppression; also recorded: highly significant
4T1 tumor volume difference versus control starting at day 22 (4T1 breast tumor; 400 ng SC days 0, 7, 14, 21, p<0.01): highly significant
4T1 tumor burden versus PBS control (4T1 breast tumor; 400 ng partially-purified, SC, days 0, 7, 14, 21 (Nani-P3 also 2 μg), from day 15, p<0.05): significantly reduced tumor burden; also recorded: significant
average decrease of 4T1 tumor burden at maximal effect (4T1 breast tumor; SC therapy begun on day 13, tumors about 5 mm in diameter): 52%
average shrinkage of 4T1 tumor burden (4T1 breast tumor; SC therapy initiated on day 0 after tumor cell injection): 53%
effect of increasing the dose to 400 ng and 2 μg (4T1 breast tumor; SC, compared with 40 ng, data not shown): no further anti-tumor efficacy
difference in primary tumor burden between Nani-P2 and Nani-P1-treated tumors (4T1 breast tumor; day 21 (final dosing), 400 ng SC, p<0.01): 18 mm^3
dose giving significant 4T1 tumor growth inhibition (4T1 breast tumor; highly-purified, SC): ≤ 0.4 ng
4T1 breast tumor growth inhibitory effect, dose relation (4T1 breast tumor; highly-purified, SC, 0.4 ng to 40 ng per dose): dose-dependent
lung metastases versus controls (4T1 lung metastases; 4T1 model): significantly inhibited the development of spontaneous 4T1 lung metastases; also recorded: dramatic reduction in the visible number of lung metastases
average number of grossly visible tumor nodules in the lungs (4T1 lung metastases; treated IV, treatment delayed to day 13, p<0.01): seven
suppression of TS/A tumor growth (TS/A breast cancer cells; 0.4 ng SC): ~50%
TS/A primary anti-cancer difference versus control, lowest dose (TS/A breast cancer cells; 0.4 ng SC, p<0.01): highly significant
TS/A primary anti-cancer difference versus control, 40 ng (TS/A breast cancer cells; 40 ng SC, p<0.01): highly significant
TS/A total remission rate at 30 days (TS/A breast cancer cells; SC Nani-P2, 30 days): 40%
animals with SM1 tumor growth suppressed for 16 days (SM1 breast cancer cells; 40 ng SC days 0, 7, 14, 21): 100%
difference in SM1 primary tumor growth versus control (SM1 breast cancer cells; 40 ng SC days 0, 7, 14, 21, p<0.01): highly statistically significant
animals remaining in remission at 28 days following implant (SM1 breast cancer cells; 40 ng SC, one week after termination of the regimen): 40%
PD-L1 expression in primary 4T1 tumors versus controls (PD-L1): reduced
PD-L1 expression in primary 4T1 tumors versus controls (PD-L1; listed as PIN-2): reduced PD-L1 presence near the tumor edge
